Results: paper PMC7261888, “Crystal Structure of Geranylgeranyl Pyrophosphate Synthase (CrtE) Involved in Cyanobacterial Terpenoid Biosynthesis” (Frontiers in Plant Science, 2020)

Target: the molecule itself
Experiment: SEC; HiLoad 16/60 Superdex 200 pg, 25 mM Tris-HCl pH 7.5, 500 mM NaCl, 4 °C, 1 mL/min; mass estimated from the elution volume

B1: Synechococcus sp. PCC 7002 CrtE (geranylgeranyl pyrophosphate synthase) (enzyme, UniProt B1XJV9 1-302, looked up)
chain: MVVADAHTQGFSLAQYLQEQKTIVETALDQSLVITEPVTIYEAMRYSLLAGGKRLRPILCLAACEMLGGTAAMAMNTACALEMIHTMSLIHDDLPAMDNDDLRRGKPTNHKVYGEDIAILAGDALLSYAFEYVARTPDVPAERLLQVIVRLGQAVGAEGLVGGQVVDLESEGKTDVAVETLNFIHTHKTGALLEVCVTAGAILAGAKPEEVQLLSRYAQNIGLAFQIVDDILDITATAEELGKTAGKDLEAQKVTYPSLWGIEKSQAEAQKLVAEAIASLEPYGEKANPLKALAEYIVNRKN
notes: CrtE (type II geranylgeranyl pyrophosphate synthase) of Synechococcus sp; PCC 7002, gene crtE, locus SYNPCC7002_A1085; amplified from genomic DNA with primers from the ATG to the stop codon; predicted 302 residues; Expressed from pHUE as an N-terminal His-tagged ubiquitin fusion and freed by deubiquitinase; also called Syn7002 CrtE; Syn7002 GGPPS; source: E. coli BL21(DE3), purified (Ni-NTA, …)
stoichiometry N: 2
